Measurements published in patent US20240158497A1 (published 2024).

B1: bsAb19757D (bispecific antibody, V domains shown)
VH 1: EVQLVESGGGLVQPGGSLRLSCVASGFTFNKYDMHWVRQTTGKGLEWVSGIDTDGDTYYPGSVKGRFTISRENAENSLYLQMNGLRVGDTAVYYCARWPWSGFYGAFDIWGQGTMVTVSS
VH 2: EVQLVESGGGVVRPGGSLRLSCTASGFTFDDYGMSWVRQAPGKGLEWVSGINWNGGRTEYADAVKGRFIISRDNAKNSLYLQMNSLRAEDTALYFCARTELRWDYWGQGTLVTVSS
VL: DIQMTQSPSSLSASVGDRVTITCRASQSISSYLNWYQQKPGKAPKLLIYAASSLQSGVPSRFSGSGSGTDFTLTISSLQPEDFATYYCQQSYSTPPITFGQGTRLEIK
notes: LEPR x GP130 bispecific with common light chain
B2: MAb16622 (antibody, V domains shown)
VH: B1 VH 2
VL: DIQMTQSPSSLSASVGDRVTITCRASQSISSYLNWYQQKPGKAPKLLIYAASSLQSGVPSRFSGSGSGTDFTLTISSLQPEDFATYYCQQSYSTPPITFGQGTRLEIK
B3: bsAb19758D (bispecific antibody, V domains shown)
VH 1: B1 VH 1
VH 2: EVQLVESGGGLVQSGGSLRLSCAASGFTFSRYEMNWVRQAPGKGLEWVAYISNTGTTRDYSDSVKGRFTISRDNAKNSLYLQMSSLRVEDTAVYYCVREKFSGTSDWFDPWGQGTLVTVSS
VL: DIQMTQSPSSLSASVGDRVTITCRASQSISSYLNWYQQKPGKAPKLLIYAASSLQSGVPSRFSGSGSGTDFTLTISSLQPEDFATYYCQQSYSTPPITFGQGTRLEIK
notes: as for B1
B4: MAb16623 (antibody, V domains shown)
VH: EVQLVESGGGLVQPGGSLRLSCAASGLTFSSYEMNWVRQAPGKGLEWVSHISSAGSTKYYADSVKGRFTISRDNAKNSLFLQMNSLRAEDTAIYYCAGYNYAYYYFGVDVWGQGTTVTVSS
VL: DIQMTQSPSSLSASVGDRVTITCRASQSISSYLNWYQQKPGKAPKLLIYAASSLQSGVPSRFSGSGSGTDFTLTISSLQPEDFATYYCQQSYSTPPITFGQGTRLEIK
B5: bsAb19155D (bispecific antibody, V domains shown)
VH 1: QVQLVESGGGVVQPGRSLRLSCTASGFTFSSYAMYWVRQAPGKGLEWVSVIYYDGSYKYYADSVKGRFTISRDNSKNTLYLQMDSLRAEDTAVYYCASYNWNYWYFDFWGRGTLVTVSS
VH 2: EVQLVESGGGLVQPGGSLRLSCAASGFTFSTYWMNWVRQAPGKGLEWVANIKEDGSEKYYVDSVKGRFTISRDNAKNSLYLQMNSLRAEDTAVYYCAREGFGVVTYIWGQGTMVTVSS
VL: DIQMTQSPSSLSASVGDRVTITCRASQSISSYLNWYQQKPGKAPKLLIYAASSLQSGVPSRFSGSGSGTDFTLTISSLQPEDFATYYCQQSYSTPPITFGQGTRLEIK
notes: as for B1
B6: bsAb19156D (bispecific antibody, V domains shown)
VH 1: B5 VH 1
VH 2: QVQLVESGGGLVKPGGSLRLSCAASGFTFSDYYMTWIRQTPGKGLDWVSYISSSGTNKYNADSVKGRFTISRDNAKNSLYLQMNSLRAEDTAVYYCVRDPPWGMDVWGQGTTVTVSS
VL: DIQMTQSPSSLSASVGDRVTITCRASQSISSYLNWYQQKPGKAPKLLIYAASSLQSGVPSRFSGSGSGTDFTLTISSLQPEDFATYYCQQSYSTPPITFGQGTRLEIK
notes: as for B1
B7: MAb16614 (antibody, V domains shown)
VH: QVQLVESGGGVVQPGGSLRLSCAASGFTFSTYDIHWVRQAPGKGLEWVAVISFDGSNRNYGDSVKGRFTISRDNSDNTLFLEMNNLRFEDTAVYYCAKEGYGVDFQHWGQGTLVTVSS
VL: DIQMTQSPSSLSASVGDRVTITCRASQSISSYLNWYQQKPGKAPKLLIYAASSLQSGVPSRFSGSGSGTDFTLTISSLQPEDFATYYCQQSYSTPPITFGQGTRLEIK
B8: MAb16618 (antibody, V domains shown)
VH: QVQLQESGPGLVKPSETLSLTCTVSGGSISNYYWTWIRQPPGKGLEWIGHISNSGTTNYNPSLKSRVTISVDTSKNQFSLKLTSVTAADTAVYYCARLPLGIAAVDTDYYYYFGMDVWGQGTTVTVSS
VL: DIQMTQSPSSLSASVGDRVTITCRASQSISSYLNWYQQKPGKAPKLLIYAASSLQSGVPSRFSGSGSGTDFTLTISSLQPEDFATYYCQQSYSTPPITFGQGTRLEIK

Assays:
[1] = target: T1, human GP130 extracellular domain expressed with a C-terminal myc-myc-hexahistidine tag (human, UniProt P40189 23-619); assay: SPR, bsAb captured by anti-hFc, 25C
T1 construct: also called hGP130-MMH; hGP130-mmH
Procedure: (§1) Equilibrium dissociation constants (KD values) for LEPR and GP130 binding to purified anti-LEPR/GP130 bispecific antibodies were determined using a real-time surface plasmon resonance biosensor using a Biacore 4000 instrument. All binding studies were performed in 10 mM HEPES, 150 mM NaCl, 3 mM EDTA, and 0.05% v/v Surfactant Tween-20, pH 7.4 (HBS-ET) running buffer at 25° C. and 37° C. The Biacore sensor surface was first derivatized by amine coupling with a monoclonal mouse anti-human Fc antibody (GE, #BR-1008-39) to capture anti-LEPR/GP130 bispecific antibodies. […] Different concentrations of LEPR or GP130 reagents were first prepared in HBS-ET running buffer (100 nM-3.7 nM; 3-fold serial dilution) and were injected over anti-human Fc captured anti-LEPR/GP130 bispecific antibody surface for 4 minutes at a flow rate of 30 μL/minute, while the dissociation of bispecific antibody bound LEPR or GP130 reagent was monitored for 10 minutes in HBS-ET running buffer. Kinetic association (kₐ) and dissociation (kd) rate constants were determined by fitting the real-time binding sensorgrams to a 1:1 binding model with mass transport limitation using Scrubber 2.0c curve-fitting software. Binding dissociation equilibrium constants (KD) and dissociative half-lives (t ½) were calculated from the kinetic rate constants as: […]

[2] = target: T2, Macaca Fascicularis GP130 extracellular domain expressed with a C-terminal myc-myc-hexahistidine tag (Macaca fascicularis, UniProt P40189 23-619 (human entry)); assay: SPR, bsAb captured by anti-hFc, 25C
T2 construct: also called mfGP130-MMH; mfGP130-mmH
T2 chain: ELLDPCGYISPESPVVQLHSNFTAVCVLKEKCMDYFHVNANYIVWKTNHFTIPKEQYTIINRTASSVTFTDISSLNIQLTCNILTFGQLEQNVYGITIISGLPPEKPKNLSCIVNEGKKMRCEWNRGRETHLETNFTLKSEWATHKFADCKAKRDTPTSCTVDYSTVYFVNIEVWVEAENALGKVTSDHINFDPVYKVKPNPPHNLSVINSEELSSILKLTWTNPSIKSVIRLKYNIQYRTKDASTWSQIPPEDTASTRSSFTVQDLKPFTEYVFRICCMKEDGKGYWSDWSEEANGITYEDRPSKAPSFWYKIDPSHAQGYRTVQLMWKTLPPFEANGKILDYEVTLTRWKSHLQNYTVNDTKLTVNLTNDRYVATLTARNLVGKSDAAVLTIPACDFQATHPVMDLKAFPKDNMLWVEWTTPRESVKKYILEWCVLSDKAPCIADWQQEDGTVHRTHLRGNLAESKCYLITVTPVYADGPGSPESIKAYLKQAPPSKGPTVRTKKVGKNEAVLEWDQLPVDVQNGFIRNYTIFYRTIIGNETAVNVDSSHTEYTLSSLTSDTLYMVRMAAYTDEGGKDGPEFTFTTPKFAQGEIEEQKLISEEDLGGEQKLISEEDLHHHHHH
Procedure: as §1

[3] = target: T1, human GP130 extracellular domain …; assay: SPR, bsAb captured by anti-hFc, 37C
Procedure: as §1

[4] = target: T2, Macaca Fascicularis GP130 extracellular …; assay: SPR, bsAb captured by anti-hFc, 37C
Procedure: as §1

[5] = target: T3, Macaca fascicularis GP130 extracellular domain expressed with a C-terminal myc-myc-hexahistidine tag (Macaca fascicularis, UniProt P40189 23-619 (human entry)); assay: SPR (Biacore 4000), mAb captured on anti-human Fc, 37 C
T3 construct: Monomeric reagent; also called mfGP130-mmH; mfGP130-MMH
T3 chain: T2 chain
Procedure: (§2) Equilibrium dissociation constant (KD) for different GP130 reagents binding to purified anti-GP130 monoclonal antibodies were determined using a real-time surface plasmon resonance based Biacore 4000 biosensor. All binding studies were performed in 10 mM HEPES, 150 mM NaCl, 3 mM EDTA, and 0.05% v/v Surfactant Tween-20, pH 7.4 (HBS-ET) running buffer at 25° C. and 37° C. The Biacore sensor surface was first derivatized by amine coupling with a monoclonal mouse anti-human Fc antibody (GE, #BR-1008-39) to capture anti-GP130 monoclonal antibodies. […] Reagents tagged with “mmH” are monomeric, whereas reagents tagged with “mFc” are dimeric. Thus, for example, “hGP130-mmH” is also referred to as “monomeric human GP130,” and “hGP130-mFc” is also referred to as “dimeric human GP130.”
(§3) The association rate (k a) and dissociation rate (kd) were determined by fitting the real-time binding sensorgrams to a 1:1 binding model with mass transport limitation using Scrubber 2.0c curve-fitting software. Binding dissociation equilibrium constant (KD) and dissociative half-life (t ½) were calculated from the kinetic rates as: […]

[6] = target: T4, human GP130 extracellular domain expressed with a C-terminal myc-myc-hexahistidine tag (human, UniProt P40189 23-619); assay: as above
T4 construct: Monomeric reagent; also called hGP130-mmH; hGP130-MMH
Procedure: as §2, §3

[7] = target: T3, Macaca fascicularis GP130 extracellular …; assay: SPR (Biacore 4000), mAb captured on anti-human Fc, 25 C
Procedure: as §2, §3

Binder	100 nM hGP130-MMH Bound (RU) [1] [RU]	100 nM mfGP130-MMH Bound (RU) [2] [RU]	Kd [2] [nM]	koff [2] [s⁻¹]	kon [2] [M⁻¹ s⁻¹]	t½ [2] [s]	100 nM hGP130-MMH Bound (RU) [3] [RU]	100 nM mfGP130-MMH Bound (RU) [4] [RU]	100 nM Ag Bound [5] [RU]	Kd [5] [nM]	koff [5] [s⁻¹]	kon [5] [M⁻¹ s⁻¹]	t½ [5] [s]	100 nM Ag Bound [6] [RU]	Kd [6] [nM]	koff [6] [s⁻¹]	kon [6] [M⁻¹ s⁻¹]	t½ [6] [s]	100 nM Ag Bound [7] [RU]	Kd [7] [nM]	further results
B1	16	15	188	0.0204	108000	36	16	14	–	–	–	–	–	–	–	–	–	–	–	–	Kd [1]: 196 nM; koff [1]: 0.0218 s⁻¹; kon [1]: 112000 M⁻¹ s⁻¹; t½ [1]: 30 s; Kd [3]: 358 nM; koff [3]: 0.0635 s⁻¹; kon [3]: 178000 M⁻¹ s⁻¹; t½ [3]: 12 s; Kd [4]: 450 nM; koff [4]: 0.0598 s⁻¹; kon [4]: 133000 M⁻¹ s⁻¹; t½ [4]: 12 s
B2	–	–	–	–	–	–	–	–	28	198	0.0537	272000	12	30	225	0.0574	255000	12	34	151	koff [7]: 0.02 s⁻¹; kon [7]: 132000 M⁻¹ s⁻¹; t½ [7]: 36 s
B3	51	46	16.5	0.00507	307000	138	50	45	–	–	–	–	–	–	–	–	–	–	–	–	Kd [1]: 14.6 nM; koff [1]: 0.00457 s⁻¹; kon [1]: 313000 M⁻¹ s⁻¹; t½ [1]: 150 s; Kd [3]: 16.7 nM; koff [3]: 0.00747 s⁻¹; kon [3]: 448000 M⁻¹ s⁻¹; t½ [3]: 90 s; Kd [4]: 18.2 nM; koff [4]: 0.0073 s⁻¹; kon [4]: 402000 M⁻¹ s⁻¹; t½ [4]: 96 s
B4	–	–	–	–	–	–	–	–	60	44.3	0.0156	352000	42	68	32.2	0.0123	381000	54	74	25.5	koff [7]: 0.00476 s⁻¹; kon [7]: 187000 M⁻¹ s⁻¹; t½ [7]: 144 s
B5	7	7	186	0.0184	98500	36	4	3	–	–	–	–	–	–	–	–	–	–	–	–	binding result [3]: no binding (tested: 100 nM)
B6	27	30	22.1	0.00162	73300	420	24	26	–	–	–	–	–	–	–	–	–	–	–	–	Kd [1]: 24.7 nM; koff [1]: 0.00221 s⁻¹; kon [1]: 89500 M⁻¹ s⁻¹; t½ [1]: 300 s; Kd [3]: 95 nM; koff [3]: 0.00797 s⁻¹; kon [3]: 83900 M⁻¹ s⁻¹; t½ [3]: 84 s; Kd [4]: 87.6 nM; koff [4]: 0.00767 s⁻¹; kon [4]: 87500 M⁻¹ s⁻¹; t½ [4]: 90 s
B7	–	–	–	–	–	–	–	–	8	72.2	0.0267	370000	24	10	121	0.03	247000	24	16	139	koff [7]: 0.0104 s⁻¹; kon [7]: 74400 M⁻¹ s⁻¹; t½ [7]: 66 s
B8	–	–	–	–	–	–	–	–	26	90.3	0.12	1.33e+06	6	36	103	0.112	1.08e+06	6	40	166	koff [7]: 0.0621 s⁻¹; kon [7]: 374000 M⁻¹ s⁻¹; t½ [7]: 12 s
